Reference: the supplement of paper PMC10567573
± gives the standard deviation.

Experiment: protein stability index of a GFP-peptide fusion (GPS, HEK-293T) (PSI 1-6); higher = more stable
[1] = treatment: DMSO, c terminus: a fixed tail appended
[2] = treatment: MLN4924 1 uM, 8 h, c terminus: a fixed tail appended
[3] = treatment: DMSO, c terminus: native
[4] = treatment: MLN4924 1 uM, 8 h, c terminus: native
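Also: 24-mer peptide tiles fused after GFP, lentivirally expressed, FACS-sorted into six equal bins by GFP/DsRed ratio, decoded by Illumina sequencing, PSI is the read-weighted mean bin number.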

Sequence	protein stability index [1]	protein stability index [2]	protein stability index [3]	protein stability index [4]
FPWIDAIMTQLRQEGWIHHLARHA [CRY1]	2.5 ± 0.46	2.96 ± 0.8	–	–
FQEPDSPLPPARSPTEPGPERRRS [WEE1]	5.32 ± 0.35	5.31 ± 0.06	–	–
FQLNQDKMNFSTLRNIQGLFAPLK [POMP]	2.54 ± 0.61	2.3 ± 0.4	–	–
FQSRLPYQYLHYALFKANRLEKAV [P3H4]	2.37 ± 0.53	2.31 ± 0.56	–	–
FQVVKDAVLDCLLDFLPKDVKKEK [TENT5D]	5.16 ± 0.18	4.95 ± 0.23	–	–
FRALAPMYYRGSAAAIIVYDITKE [RAB22A]	2.27 ± 0.36	2.16 ± 0.54	–	–
FRDEKDYPASTSQDSFEAAGNSTS [KCNA3]	5.55 ± 0.25	5.47 ± 0.077	–	–
FSVRPGTEATISIREDEVHRLGSP [SCNN1D]	4.16 ± 0.16	4.2 ± 0.12	–	–
FTETNNHWPQGPTGPPGPPGPMGP [EMID1]	2.58 ± 0.28	3.4 ± 0.5	–	–
FTGRDSITCLTCQGTGYIPTEQVN [TMEM106C]	2.66 ± 0.57	3.31 ± 0.65	–	–
FVSAGAAAGVAAAFGAPIGGTLFS [CLCN6]	2.8 ± 0.48	2.46 ± 0.21	–	–
FVVLAFLTGVLCSYPNPNEDKCPG [TMEM192]	2.92 ± 0.52	3.22 ± 0.46	–	–
FVVTMLKLIQKKLLDKTCDQVMEF [ZER1]	3.14 ± 0.39	3.15 ± 0.32	–	–
FWPHLKASNWSTTGFGQGQGYTIN [HDAC6]	2.38 ± 0.32	2.64 ± 0.17	–	–
FYNTEDIKDWEDRFYLLLFSFLGL [PTGFR]	2.41 ± 0.7	2.1 ± 0.47	–	–
GADCGIQWWNAVFIMLLIGIVLPV [LYSMD4]	2.88 ± 0.1	3.03 ± 0.45	–	–
GAPEDDEEDDGRGRGLLRWDSFSA [DENND6A]	4.92 ± 0.078	4.98 ± 0.19	–	–
GAPLLPPPLPPPSPPGSGRGPGAS [ACBD3]	5.23 ± 0.21	5.108 ± 0.027	–	–
GASSREEPPEEPEQCPVIDSQAPA [SPDEF]	5.69 ± 0.17	5.52 ± 0.078	–	–
GCSSSGSCSQGSGILHYAHGDSQQ [CRY1]	3.75 ± 0.41	3.67 ± 0.075	–	–
GEEGAPGKWQQQGDLQDTKENREE [CHGB]	5.57 ± 0.31	5.52 ± 0.28	–	–
GEWGGRHPSWPWTRCLRMRPPRS	–	–	2.81 ± 0.6	2.88 ± 0.36
GFHKAGSMLPPVNFSIVPYEKKFD [SPATS1]	3.64 ± 0.087	3.54 ± 0.054	–	–

Sequence	protein stability index [1]	protein stability index [2]	protein stability index [3]	protein stability index [4]
GFKRDYYLIRVDGKGSIKELFPTG [VPS39]	2.06 ± 0.29	2.25 ± 0.36	–	–
GGDLMPAPADPTAREGLAAPPRRL [FCHO1]	5.19 ± 0.33	5.15 ± 0.23	–	–
GGEYQEPGGNVKGVWAPPAPGFGE [BEX5]	4.05 ± 0.53	4.38 ± 0.31	–	–
GGGNDRVRNLQSEVEGVKNIMTQN [VAMP8]	4.61 ± 0.34	4.75 ± 0.35	–	–
GGTSWTAYSLNKIHAYNLGTNAWE [KLHDC10]	2.12 ± 0.34	2.08 ± 0.3	–	–
GGTTGYIYSTDLHKLDLNTREWTQ [KLHDC10]	2.44 ± 0.3	2.47 ± 0.43	–	–
GGWNFSTQKFTDMVATANNRQTFV [CHIT1]	2.55 ± 0.29	2.81 ± 0.31	–	–
GGYLQRTTYDRRSSQERKFMEERE [RSPH3]	4.82 ± 0.21	4.76 ± 0.17	–	–
GHRLAQKLQGLENWGQDPGVSANA [PBXIP1]	3.82 ± 0.2	3.87 ± 0.3	–	–
GIGKNVICDRTATPLDAFRMTSAA [GFOD1]	3.43 ± 0.25	3.45 ± 0.17	–	–
GKNWSKLCKDCQVIDGRNVTVTDV [TPPP]	3.67 ± 0.14	3.92 ± 0.23	–	–
GKSRLSPAGEMKPMPLSEGKSILL [BCL2L13]	3.44 ± 0.32	3.44 ± 0.32	–	–
GKTWKQICDKHWTAKNSRVVCGMF [LOXL2]	2.06 ± 0.46	2.18 ± 0.46	–	–
GLFRKSGVKSRIQALRQMNEGAID [DLC1]	3.36 ± 0.1	3.71 ± 0.12	–	–
GLPGSGKTTLARQLQHDFPRALIF [N4BP2L1]	2.25 ± 0.18	2.56 ± 0.23	–	–
GLQAPPPDDVDYATNPHVKPPYSY [FOXJ1]	4.42 ± 0.29	4.46 ± 0.19	–	–
GLRAGFSSTSYRRTFGPPPSLSPG [PRPH]	2.62 ± 0.24	2.93 ± 0.15	–	–
GLSVSSRFSSGGACGLGGGYGGGF [KRT16]	2.2 ± 0.39	2.52 ± 0.38	–	–
GPIGGMMPPQPGIPQQQGMRPPMP [ZNF207]	4.35 ± 0.3	4.36 ± 0.27	–	–
GPSLPSKRESPGVGGGSGDEASAA [ZBTB22]	5.5 ± 0.34	5.64 ± 0.48	–	–
GQCLDSTDQLEFTVEPRLLVADLL [RTN2]	2.91 ± 0.2	3 ± 0.26	–	–
GQDKQFAWHCSESGQRLGGYRTSA [WDFY2]	3.51 ± 0.24	3.24 ± 0.28	–	–
GQLTGGYKPNPQIYVKLIEECTDL [OAS1]	2.99 ± 0.21	3.06 ± 0.093	–	–

Sequence	protein stability index [1]	protein stability index [2]	protein stability index [3]	protein stability index [4]
GRGAFGEVRLVQKKDTGHIYAMKI [STK38L]	2.09 ± 0.25	2.43 ± 0.49	–	–
GRGLYVYSLQMKRVIACQKTAHDS [WDR41]	2.08 ± 0.42	2.15 ± 0.34	–	–
GRSGWPAGGAPGSPIPSPPGPGDD [HES6]	5.2 ± 0.21	5.25 ± 0.093	–	–
GSFTVRADHGEPIGRGTKVILHLK [HSP90AB1]	2.1 ± 0.3	2.71 ± 0.3	–	–
GSGSSYVQNGTGNAYEEEANKQS [CNOT7]	–	–	5.37 ± 0.19	5.2 ± 0.23
GSRYDARRGVSDWDLRMKLHDRGA [DNAAF3]	3.61 ± 0.23	3.66 ± 0.42	–	–
GTQHMFEDDPSVLYVSLHRYDHGT [HDAC6]	2.34 ± 0.37	2.5 ± 0.45	–	–
GVRVNNRFELINIDDLEDDPVVNG [TCF25]	4.41 ± 0.16	4.51 ± 0.18	–	–
GYGRAPGGLSLHDYKLLKPSLAVN [JUNB]	2.92 ± 0.035	2.88 ± 0.73	–	–
GYVSQQGGQRSTPLIIAARNGHAK [FEM1B]	3.74 ± 0.15	3.8 ± 0.34	–	–
HAAHVVCRELGYVEAKSWTASSSY [LOXL2]	2.31 ± 0.29	2.28 ± 0.17	–	–
HALSGHAKVKPFDPKITCKQECLI [TPH1]	2.13 ± 0.27	2.12 ± 0.19	–	–
HDGEDVACPQGGVQYGAGVACSET [LOXL2]	4.99 ± 0.31	5.42 ± 0.32	–	–
HEALSRLWELCHLWLRPEVHTKEQ [ZNF396]	2.11 ± 0.45	2.4 ± 0.14	–	–
HGSPQLGEGMFQHQTSVAHQPVVR [TBX5]	4.19 ± 0.28	4.13 ± 0.17	–	–
HKKDCAREKPFKCQECGKTFRVSS [ZNF75A]	3.45 ± 0.38	3.65 ± 0.41	–	–
HKPLLICSCEWMAAMFGGSFVESA [RHOBTB1]	2.72 ± 0.79	2.46 ± 0.85	–	–
HLSSPAKNFFKKAAAALFGGKKDK [PLK2]	2.16 ± 0.49	2.53 ± 0.55	–	–
HLTRGRKMAHVIAACLYLVCRTEG [BRF1]	2.53 ± 0.99	2.6 ± 0.48	–	–
HMVSDGSWVVRVQAAKLLGSMEQV [INTS4]	2.48 ± 0.74	2.1 ± 0.21	–	–
HNCAHFCINIPGSYVCRCKQGYIL [MATN2]	2.48 ± 0.2	2.71 ± 0.27	–	–
HPVCSLCWSRDGHKLVSASTDNIV [RBBP5]	2.72 ± 0.28	2.95 ± 0.44	–	–
HQEQVEDLTASHDAALLEMENNHT [MTUS2]	5.51 ± 0.2	5.4 ± 0.3	–	–

Sequence	protein stability index [1]	protein stability index [2]	protein stability index [3]	protein stability index [4]
HQQNKIKDLQKEQKTLQVKCQHYK [CEP70]	4.11 ± 0.28	4.6 ± 0.21	–	–
HQQVEEALSFTLLGSAPLDQEPLL [NEK8]	3.69 ± 0.25	3.75 ± 0.12	–	–
HRGHCERRHRLGGVGAVPGPGTPT [ZBTB22]	4.2 ± 0.26	4.36 ± 0.16	–	–
HRGPSGHTEASAQRSHMGKLKEPQ	5.1 ± 0.38	4.87 ± 0.5	–	–
HRPSLNSVSLQINCQSVAQMNLLQ [DLC1]	2.4 ± 0.4	2.52 ± 0.32	–	–
HSIINALKAKLQMTEAALALSEQK [LRRC45]	2.63 ± 0.087	2.74 ± 0.27	–	–
HSQNLAKQQRNEVSFVIHNLPIIA [SEPHS2]	2.14 ± 0.089	2.25 ± 0.22	–	–
HSTLEYKVKERLGTLKNPPKKKMK [LCOR]	4.47 ± 0.26	4.73 ± 0.28	–	–
HTLLNELERNPNGVADGVIKSVLW [CDKL4]	2.58 ± 0.49	2.7 ± 0.4	–	–
HTRSLNSIIHQMEKFSSSLHELSS [FBF1]	2.97 ± 0.21	3.06 ± 0.48	–	–
IAEVCCTSIVYATEKKQTKVEFPE [KCTD10]	3.42 ± 0.18	3.9 ± 0.39	–	–
IAKAEETHSSLSQELQARLQTVTR [CCDC89]	4.25 ± 0.088	4.13 ± 0.2	–	–
IATGPFVAFGIEADDESLLRTSNG [DNAAF3]	3.9 ± 0.16	4.01 ± 0.22	–	–
IAVRKSRDKAKMRNLETQHKVLEL [CEBPB]	3.14 ± 0.36	3.54 ± 0.12	–	–
ICARACNTTLTQYQLLATHVPTVW [RHOBTB1]	2.52 ± 0.49	2.43 ± 0.7	–	–
IEIVHISTVQILTEGFPPGGGNAR [ZFYVE21]	2.51 ± 0.67	2.72 ± 0.74	–	–
IEKEEQEKKRKEEEERRRREEEER [ACBD3]	5.48 ± 0.21	5.66 ± 0.097	–	–
IESERALISQCGKPVVNVSYRPAY [DUSP5]	2.6 ± 0.5	2.82 ± 0.13	–	–
IFALYSSLKFKSRVPQTWSKRLYG [PLD5]	–	2.83 ± 1.7	–	–
IGGFTALHYAAMHGRARIARLMLE [ASB7]	2.15 ± 0.23	2.31 ± 0.22	–	–
